In paper PMC3480639:

Columns and labels:
H2B:mRFP = H2B:mRFP (UniProt P06899); assay: FRET or BRET; FLIM-FRET in cells in interphase; GFP fusion as donor, mRFP or dsRed fusion as acceptor; multiphoton excitation at 890 nm; at least 20 cells per condition
[1] = molecular target: Importin β (endogenous, DT40); assay: TrAP-tag pull-down and mass spectrometry; details: DT40 cells blocked in mitosis with colcemid, then forced to exit from mitosis by addition of roscovitine; parent: 15
histone H2B = assay: TrAP-tag pull-down and mass spectrometry; details: DT40 cells blocked in mitosis with colcemid, then forced to exit from mitosis by addition of roscovitine; parent: 12
PP1 = assay: TrAP-tag pull-down and mass spectrometry; details: DT40 cells blocked in mitosis with colcemid, then forced to exit from mitosis by addition of roscovitine; parent: 18
NUP50 (endogenous, DT40) = assay: TrAP-tag pull-down and mass spectrometry; details: DT40 cells blocked in mitosis with colcemid, then forced to exit from mitosis by addition of roscovitine; parent: 17
histone H3 = assay: TrAP-tag pull-down and mass spectrometry; details: DT40 cells blocked in mitosis with colcemid, then forced to exit from mitosis by addition of roscovitine; parent: 17
[2] = molecular target: NUP153 (endogenous, DT40); assay: TrAP-tag pull-down and mass spectrometry; details: DT40 cells blocked in mitosis with colcemid, then forced to exit from mitosis by addition of roscovitine; parent: 8

E FRET (H2B:mRFP) | other: number of peptides identified by mass spectrometry [1] | other: number of peptides identified by mass spectrometry (histone H2B) | other: number of peptides identified by mass spectrometry (PP1) | other: number of peptides identified by mass spectrometry (NUP50 (endogenous, DT40)) | other: number of peptides identified by mass spectrometry (histone H3) | other: number of peptides identified by mass spectrometry [2] | Substance
22% |  |  |  |  |  |  | GFP:Repo-Man (from UniProt Q69YH5 1-1023) (natural protein)
 | 35 | 14 | -0 | 17 | 12 | 34 | TrAP:hRepo-Man^WT (from UniProt Q69YH5) RVTF>RAXA (V>A; F>A in the RVTF motif, residue numbers not printed)
